T1: mCherry-labelled full-length TRAK1 (human (by the printed accession …, UniProt Q9UPV9-1 1-953))
T1 construct: TRAK1 (trafficking kinesin protein 1), cDNA KIAA1042 from the Kazusa DNA Research Institute; 953 residues by the printed region 636-953; also called mCherry-TRAK1; trafficking kinesin protein 1; source: HEK293T cells, transfected, purified (StrepTactinXT, eluted by TEV cleavage of the N-terminal tag, Superose 6 SEC); not shown: mCherry, N-terminal, kept; TwinStrep-FLAG-Halo, N-terminal, cleaved
T1 sequence (looked up): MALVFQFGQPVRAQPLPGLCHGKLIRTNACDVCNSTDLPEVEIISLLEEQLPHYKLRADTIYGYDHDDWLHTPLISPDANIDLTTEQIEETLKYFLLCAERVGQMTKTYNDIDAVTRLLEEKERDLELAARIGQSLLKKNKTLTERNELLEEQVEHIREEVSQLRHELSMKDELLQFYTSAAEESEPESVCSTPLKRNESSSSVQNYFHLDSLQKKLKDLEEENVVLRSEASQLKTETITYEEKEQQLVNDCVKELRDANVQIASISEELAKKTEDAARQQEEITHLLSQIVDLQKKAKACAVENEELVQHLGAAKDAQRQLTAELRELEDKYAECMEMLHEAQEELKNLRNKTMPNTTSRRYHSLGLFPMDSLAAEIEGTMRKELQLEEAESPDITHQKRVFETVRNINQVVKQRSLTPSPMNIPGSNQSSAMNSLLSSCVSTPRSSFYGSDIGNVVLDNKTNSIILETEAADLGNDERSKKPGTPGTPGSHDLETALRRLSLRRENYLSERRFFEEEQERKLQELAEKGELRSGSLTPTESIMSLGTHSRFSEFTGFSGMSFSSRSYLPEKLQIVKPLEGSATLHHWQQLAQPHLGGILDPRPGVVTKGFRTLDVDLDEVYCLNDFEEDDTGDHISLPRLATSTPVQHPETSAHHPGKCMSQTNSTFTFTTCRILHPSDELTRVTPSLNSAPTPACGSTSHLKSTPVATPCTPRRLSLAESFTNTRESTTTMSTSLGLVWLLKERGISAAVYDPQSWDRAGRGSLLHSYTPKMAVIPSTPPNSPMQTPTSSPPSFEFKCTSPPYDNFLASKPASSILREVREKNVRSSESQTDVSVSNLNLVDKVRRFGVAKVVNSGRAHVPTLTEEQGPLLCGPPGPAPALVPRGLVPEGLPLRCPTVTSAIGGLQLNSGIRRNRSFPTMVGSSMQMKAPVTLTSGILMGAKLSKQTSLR

B1: GFP-labelled KIF5B∆ (KIF5B without the inhibitory domain, amino acids 906-963) (domain or fragment, human, UniProt P33176 1-905, looked up)
chain: MADLAECNIKVMCRFRPLNESEVNRGDKYIAKFQGEDTVVIASKPYAFDRVFQSSTSQEQVYNDCAKKIVKDVLEGYNGTIFAYGQTSSGKTHTMEGKLHDPEGMGIIPRIVQDIFNYIYSMDENLEFHIKVSYFEIYLDKIRDLLDVSKTNLSVHEDKNRVPYVKGCTERFVCSPDEVMDTIDEGKSNRHVAVTNMNEHSSRSHSIFLINVKQENTQTEQKLSGKLYLVDLAGSEKVSKTGAEGAVLDEAKNINKSLSALGNVISALAEGSTYVPYRDSKMTRILQDSLGGNCRTTIVICCSPSSYNESETKSTLLFGQRAKTIKNTVCVNVELTAEQWKKKYEKEKEKNKILRNTIQWLENELNRWRNGETVPIDEQFDKEKANLEAFTVDKDITLTNDKPATAIGVIGNFTDAERRKCEEEIAKLYKQLDDKDEEINQQSQLVEKLKTQMLDQEELLASTRRDQDNMQAELNRLQAENDASKEEVKEVLQALEELAVNYDQKSQEVEDKTKEYELLSDELNQKSATLASIDAELQKLKEMTNHQKKRAAEMMASLLKDLAEIGIAVGNNDVKQPEGTGMIDEEFTVARLYISKMKSEVKTMVKRCKQLESTQTESNKKMEENEKELAACQLRISQHEAKIKSLTEYLQNVEQKKRQLEESVDALSEELVQLRAQEKVHEMEKEHLNKVQTANEVKQAVEQQIQSHRETHQKQISSLRDEVEAKAKLITDLQDQNQKMMLEQERLRVEHEKLKATDQEKSRKLHELTVMQDRREQARQDLKGLEETVAKELQTLHNLRKLFVQDLATRVKKSAEIDSDDTGGSAAQKQKISFLENNLEQLTKVHKQLVRDNADLRCELPKLEKRLRATAERVKALESALKEAKENASRDRKRYQQEVDRIKEA
notes: Constitutively active construct; also called KIF5B∆-GFP; source: SF9 insect cells (FlexiBAC baculovirus), purified (Ni-NTA, 6xHis cleaved by 3C PreScission protease, second Ni-NTA); not shown: GFP, C-terminal, kept; 6xHis, C-terminal, cleaved
B2: unlabelled KIF5B∆ (domain or fragment, human, UniProt P33176 1-905, looked up)
chain: B1 chain
notes: KIF5B, kinesin-1 heavy chain, human, amino acids 1-905; The methods describe only vectors with a C-terminal fluorescent tag; also called recombinant KIF5B∆; source: SF9 insect cells (all KIF5B constructs), purified

How the values were obtained:
[1] = target: the molecule itself; assay: single-molecule fluorescence intensity distributions (TIRF) with labelling efficiencies from SEC absorption; intensity distributions of KIF5B∆-mCherry compared with mCherry-TRAK1 in the motility experiments; labelling efficiencies about 22% and about 88%
[2] = target: T1, mCherry-labelled full-length TRAK1; assay: single-molecule TIRF microscopy, two-colour co-movement on immobilised microtubules; KIF5B construct and 175 nM TRAK1 construct pre-incubated 10 min on ice, flushed onto bare immobilised microtubules in motility buffer with 1 mM Mg-ATP; room temperature; for the complexes traces of the mCherry-TRAK1 channel analysed; conditions: both partners purified
[3] = target: T1, mCherry-labelled full-length TRAK1; assay: TIRF microscopy, reconstituted transport of mitochondria on immobilised microtubules; 2 nM unlabeled KIF5B∆, 100 nM mCherry-TRAK1 and 10 µg isolated mitochondria-GFP (4T1 cells) pre-incubated on ice, flushed onto immobilised microtubules; room temperature; conditions: both partners purified

Binder	stoichiometry N [1]	binding result [2]	binding result [3]
B1	2	binds	
B2			binds
